One block for each binder: values may come before it.
Tests used:
[1] = molecular target: GTF3C5_(293-301) HLA-E single chain trimer (soluble, biotinylated) (human, biotin (AviTag)); experiment: SPR; weak binder not approaching saturation, inexact
[2] = molecular target: AKAP6_(388-396) HLA-E single chain trimer (soluble, biotinylated) (human, biotin (AviTag)); experiment: SPR
[3] = molecular target: PISD_(55-63) HLA-E single chain trimer (soluble, biotinylated) (human, biotin (AviTag)); experiment: SPR
[4] = molecular target: … peptide HLA-E single chain trimer (soluble, biotinylated) (human, biotin (AviTag)); experiment: SPR
[5] = molecular target: CREB3L1_(419-427) HLA-E single chain trimer (soluble, biotinylated) (human, biotin (AviTag)); experiment: SPR
[6] = molecular target: BFAR_(263-271) HLA-E single chain trimer (soluble, biotinylated) (human, biotin (AviTag)); experiment: SPR

- Kd [1]: ~28.1 µM
- Kd [2]: ~4.1 µM
- Kd [3]: ~12.1 µM
- Kd [4]: ~8.9 µM
- Kd [5]: ~3.3 µM
- Kd [6]: ~0.8 µM
B1: CD94/NKG2A single-chain fusion protein (human NKG2A ectodomain - GGSGGS - human CD94 ectodomain), produced in Hi5 cells for SPR (receptor)
chain: not shown

- Kd [1]: ~92.4 µM
- Kd [2]: ~15.6 µM
- Kd [3]: ~16 µM
- Kd [4]: ~23.8 µM
- Kd [5]: ~9.8 µM
- Kd [6]: ~1.8 µM
B2: CD94/NKG2C single-chain fusion protein (human NKG2C ectodomain - GGSGGS - human CD94 ectodomain), produced in Hi5 cells for SPR (receptor)
chain: not shown
